# According to the supplement of paper PMC10724198:
# ± gives the standard deviation of the averaged measurements.
# Test system: Saccharomyces cerevisiae
# Experiment: protein stability index of tFT-peptide fusion (C-terminal peptide) (PSI (0-1 scale)); higher = more stable (slower turnover)
# Conditions: genetic background: wild type; temperature: 30 C
# 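Also: PSI is a weighted mean of sequencing reads over stability bins, variants kept only with over 10 reads, mCherry proximal and sfGFP distal, peptide attached via GGGS linker.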
row,Sequence,protein stability index
1,ILSRAGMITHCR,0.642 ± 0.019
2,APAPAPARTPTR,0.683 ± 0.016
3,FLTCTTSLPFVP,0.728 ± 0.13
4,CVLWLISLLPDR,0.563 ± 0.068
5,KLREKKLLKIAE,0.679 ± 0.042
6,NKIDNNKKIHRV,0.699 ± 0.053
7,ATDWPELFLPFG,0.666 ± 0.007
8,GSIVVVGVVEGG,0.729 ± 0.066
9,RGLPVLTFPHTP,0.71 ± 0.0095
10,VLLRHRPKYACR,0.645 ± 0.022
11,EVVGGSESRELG,0.6569 ± 0.0027
12,PFLRLLQTVGST,0.593 ± 0.024
13,MCLTPLWYPSSA,0.709 ± 0.03
14,QKNETNQWKGKK,0.672 ± 0.032
15,PPFSTPFLPPSS,0.727 ± 0.072
16,FGSSLVVSMVFD,0.704 ± 0.015
17,LGPRMYKRRDLR,0.724 ± 0.023
18,FRVEWKPLYHGI,0.623 ± 0.037
19,LVNLESRAGAIR,0.713 ± 0.043
20,PVLPLPSLPSPS,0.675 ± 0.0093
21,ISQAIMTNPIKE,0.598 ± 0.14
22,WVHTLHARIGCQ,0.625 ± 0.046
23,RARCPGGQIKLH,0.714 ± 0.2
24,PPPPASSFSPPR,0.7366 ± 0.0054
25,FFPARPPPPPPR,0.769 ± 0.04

row,Sequence,protein stability index
1,SRLRFSIAPSIF,0.685 ± 0.022
2,GEGLGIGGYVRG,0.672 ± 0.044
3,PTAPVLRPPASP,0.7 ± 0.011
4,PRPPPPPASVCR,0.6579 ± 0.00069
5,SRWDSDRGGERR,0.805 ± 0.027
6,RCCGRSRLVVPW,0.6986 ± 0.0023
7,EDTMGKTASHTR,0.699 ± 0.019
8,CLLAAMTFYTVR,0.711 ± 0.029
9,GGGSGVLEWGSV,0.714 ± 0.12
10,RVGERGEGGGVV,0.638 ± 0.014
11,SRPRPPPTPALP,0.679 ± 0.0056
12,KGKNTEKEEEEK,0.685 ± 0.019
13,SPHPPPPPSPPP,0.723 ± 0.059
14,SVHRRRSLLTPL,0.706 ± 0.05
15,TRGSRGARGGGW,0.716 ± 0.012
16,GGVDNWKAIRGI,0.737 ± 0.043
17,SLPLHFISGFYV,0.6586 ± 0.0043
18,KEWGGEGRDAWG,0.6834 ± 0.0061
19,QRWKEGRGHSRQ,0.686 ± 0.017
20,LGPGGVAWGAWW,0.7623 ± 0.0022
21,TSAEYKIETIFT,0.688 ± 0.036
22,IFGRLRELTCWT,0.588 ± 0.034
23,PVICFTSYPDRQ,0.7 ± 0.098
24,SRLGFPFTGGGR,0.6597 ± 0.0062
25,CSPGLSGCVSYV,0.665 ± 0.12

row,Sequence,protein stability index
1,GARGIHSVRVRR,0.713 ± 0.053
2,FRLICSRQFFAG,0.593 ± 0.018
3,ISCGERSRGGGK,0.6122 ± 0.0029
4,NQSSTSEENSGG,0.653 ± 0.024
5,NKKEYHDRKKKS,0.619 ± 0.045
6,LSPPVLLAPPQH,0.59 ± 0.0098
7,GCCACDIGGEGG,0.642 ± 0.0079
8,KQVIIEKSIQQR,0.661 ± 0.051
9,ARRAVPGRGCEV,0.683 ± 0.066
10,SGTVRRQCGNPD,0.69752 ± 0.00027
11,FCVVGKGWKGEG,0.626 ± 0.0098
12,LGVNYWIYSPHG,0.689 ± 0.01
13,TRKQSVIRIRMR,0.653 ± 0.0082
14,WKRDSCFFIEAG,0.638 ± 0.042
15,SLFFPLPLSSLF,0.736 ± 0.07
16,RRDRRVGEGEGV,0.699 ± 0.059
17,PPPPPPPTSRPP,0.644 ± 0.03
18,VGGAVDFSVFFC,0.585 ± 0.018
19,LYKKRSCCLSPL,0.714 ± 0.053
20,LLPLVLHQAFSP,0.729 ± 0.073
21,RKINQKNNEKNS,0.648 ± 0.0037
22,GMRILRLIHVIP,0.571 ± 0.031
23,YLCARGIFTLYV,0.602 ± 0.034
24,VIFCFCSRSCFL,0.643 ± 0.037
25,LVNSEKFCLSIC,0.535 ± 0.035

row,Sequence,protein stability index
1,SERYFFFQCGPH,0.6802 ± 0.0033
2,THPPATSPPPYP,0.6631 ± 0.0057
3,YVSLAHLRWGVE,0.732 ± 0.055
4,WGSWCLVPDGNE,0.717 ± 0.084
5,VFGCAGVGGDCG,0.67 ± 0.028
6,PGSLPPPPPPPP,0.716 ± 0.016
7,PLLPLPPNPSPP,0.681 ± 0.022
8,GSRGHLGRGGPG,0.727 ± 0.017
9,KEVNEDIDKAKS,0.782 ± 0.18
10,MSLSLLSLFSSL,0.606 ± 0.027
11,IHTNICKSKDII,0.706 ± 0.025
12,IGSCLSRTRKRR,0.6922 ± 0.0031
13,SGGGGGWQEEAG,0.662 ± 0.027
14,CFCWLFLVGRAD,0.5734 ± 0.0024
15,SPFLSLPHPSFP,0.6053 ± 0.0013
16,WLVGSGGVWSGR,0.706 ± 0.019
17,LPPSPLPPLPPP,0.6942 ± 0.0012
18,MNVASCRGREYV,0.686 ± 0.032
19,VAIGGGLGGDRC,0.719 ± 0.032
20,ESGDKYKRRTQP,0.699 ± 0.052
21,HFSSLDPFLPSL,0.712 ± 0.016
22,FFVIIPAKSWLG,0.546 ± 0.03
23,AFLPLYFLEGVL,0.702 ± 0.024
24,VPHLPATPPAPP,0.646 ± 0.037
25,HHPSPPSPSPAC,0.698 ± 0.018

row,Sequence,protein stability index
1,FGCCCGGGLLGV,0.711 ± 0.027
2,GVRGCGMTADVF,0.668 ± 0.008
3,TTKRQKRKKKQR,0.633 ± 0.015
4,QGREREAGAEVM,0.699 ± 0.03
5,PPSLFSSTQLLF,0.7095 ± 0.0067
6,FVGSFYWSGFYV,0.70213 ± 0.00049
7,GQCHYSSFPVRQ,0.732 ± 0.011
8,TSSEREGHYCVR,0.693 ± 0.034
9,TSDPFGRPPETN,0.643 ± 0.1
10,DLSMIPEWICIV,0.547 ± 0.054
11,NPLSSPSLPPSS,0.625 ± 0.057
12,KASAASLFILMS,0.611 ± 0.012
13,RACLDRNNLDLG,0.605 ± 0.075
14,PARPEPPRANWR,0.647 ± 0.058
15,VVGALRFSDLFK,0.73 ± 0.042
16,YLYMESTVESHL,0.719 ± 0.025
17,AGCVLDGRGVVA,0.615 ± 0.074
18,QLEGQGISFRVL,0.785 ± 0.065
19,KGKKTKQKRAKK,0.6521 ± 0.0064
20,VWSDGCWVDWLL,0.733 ± 0.13
21,FVSVSVRFHHSF,0.575 ± 0.056
22,GGCSDKVVRGGV,0.695 ± 0.014
23,PPSLPPRPRPPS,0.6411 ± 0.0049
24,FLPPPPTPSPPY,0.723 ± 0.043
25,PFPPPTPPPPLP,0.751 ± 0.077

row,Sequence,protein stability index
1,TCPPAPSTGPST,0.648 ± 0.0073
2,EHERQQYKNYNK,0.671 ± 0.057
3,PSPRPFPPPLPP,0.6262 ± 0.0022
4,RRGVAEGVDGEG,0.615 ± 0.0071
5,VTGTQGELGSFV,0.689 ± 0.11
6,SWTEPISNTVLP,0.77 ± 0.034
7,LPPPPLSPPSLV,0.734 ± 0.0078
8,ALAYSLQRSPRV,0.616 ± 0.045
9,ASLGPCLPLSLN,0.695 ± 0.03
10,FCVFSDVSRFSY,0.701 ± 0.082
11,SVLRPPAAPPFL,0.674 ± 0.046
12,PPDGRPPPLRLM,0.679 ± 0.014
13,PPPPPLPLPLPS,0.728 ± 0.066
14,GGVFCGGGALWA,0.614 ± 0.014
15,TRLAGINGLLSA,0.689 ± 0.022
16,VDFLLRDPPGPS,0.7201 ± 0.0065
17,AKRRELKCRVNL,0.674 ± 0.0087
18,PPPWPSLCLPPS,0.706 ± 0.048
19,YGLSVSSLRLWP,0.6853 ± 0.0051
20,GGVLERSRRRGG,0.741 ± 0.17
21,VERSEGRLGVVG,0.686 ± 0.08
